From paper PMC9922763 (Frontiers in Molecular Biosciences, 2023)
Where no end group is shown, it is not given here.

B1: IAPP BiFC fusion: human IAPP, 17-residue linker, N-terminal or C-terminal fragment of Venus (peptide)
chain: KCNTATCATQRLANFLVHSSNNFGAILSSTNVGSNTYRPACKIPNDLKQKVMNH
modifications: cysteine pairing not given here; also: fused to N- or C-terminal Venus fragment, not in chain
notes: human islet amyloid polypeptide (IAPP), the 37-amino acid long peptide cut from proIAPP; 17-amino acid linker between the protein of interest and the Venus fragment; One molecule stands for both constructs, IVN (Venus 1-173) and IVC (Venus 155-239); the label in each row tells which was used; a start methionine is not described; also called IVN; IVC; source: HEK293, transfected (pcDNA3.1 zeo+), …
B2: aSyn (61–95) BiFC fusion: aSyn residues 61–95, 17-residue linker, N-terminal or C-terminal fragment of Venus (domain or fragment)
chain: not shown
notes: alpha-synuclein (aSyn), residues 61-95, the non-amyloid-B component (NAC) region, 35 amino acids; 17-amino acid linker between the protein of interest and the Venus fragment; One molecule stands for both constructs, aSVN (Venus 1-173) and aSVC (Venus 155-239); the label in each row tells which was used; A start methionine and residues coded by the restriction sites are not described; also called …

Target: the molecule itself
Assay: split reporter (BiFC, NanoBiT); BiFC with split Venus in transfected HEK293 cells; percent of fluorescent cells by flow cytometry (Accuri C6 plus) 24 h after transfection

Protein | percent of cells with a fluorescent BiFC signal [%]
B1 | 19.7
B2 | 29.3
